Measured values taken from IntAct's records for PubMed 22908257.

Molecular target: ABI2, O04719-1
Sequence (O04719 whole entry): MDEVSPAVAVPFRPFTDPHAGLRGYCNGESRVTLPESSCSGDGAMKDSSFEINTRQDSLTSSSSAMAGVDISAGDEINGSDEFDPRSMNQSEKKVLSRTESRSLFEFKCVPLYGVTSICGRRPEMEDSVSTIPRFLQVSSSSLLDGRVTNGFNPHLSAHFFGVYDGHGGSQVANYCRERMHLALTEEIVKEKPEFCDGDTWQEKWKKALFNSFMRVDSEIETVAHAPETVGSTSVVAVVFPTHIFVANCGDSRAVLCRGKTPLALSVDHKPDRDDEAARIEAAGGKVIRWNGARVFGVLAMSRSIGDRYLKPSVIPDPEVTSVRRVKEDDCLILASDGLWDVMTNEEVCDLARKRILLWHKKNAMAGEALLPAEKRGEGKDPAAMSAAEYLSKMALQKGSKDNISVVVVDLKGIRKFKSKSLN

Chain of Rac-like GTP-binding protein ARAC10 (Arabidopsis thaliana (Mouse-ear cress)), O82481 D123A (O82481 whole entry D123A): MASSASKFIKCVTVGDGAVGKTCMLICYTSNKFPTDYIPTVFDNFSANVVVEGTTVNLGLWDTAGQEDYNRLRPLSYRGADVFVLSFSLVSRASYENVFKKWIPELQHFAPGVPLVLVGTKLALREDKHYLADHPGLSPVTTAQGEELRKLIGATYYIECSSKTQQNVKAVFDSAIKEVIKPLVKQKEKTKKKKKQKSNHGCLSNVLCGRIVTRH

effect of a mutation on the interaction: disrupting interaction strength
Substance: Rac-like GTP-binding protein ARAC10 (Arabidopsis thaliana (Mouse-ear cress)), O82481 D123A
